The values that follow come from publication PMC6561935, “Hsp90 middle domain phosphorylation initiates a complex conformational program to recruit the ATPase-stimulating cochaperone Aha1” (Nature Communications, 2019).

Broadly, the Kd is the concentration at which binding is half-saturated.

Several values for one entry are separate records, joined by “and”; a condition that tells them apart may be missing. Equal values may be shown once. Bounds are passed on as bounds.

B1: Aha1-C (C-terminal domain of human Aha1) (domain or fragment, UniProt O95433 201-338, looked up)
chain: GVKIPTCKITLKETFLTSPEELYRVFTTQELVQAFTHAPATLEADRGGKFHMVDGNVSGEFTDLVPEKHIVMKWRFKSWPEGHFATITLTFIDKNGETELCMEGRGIPAPEEERTRQGWQRYYFEGIKQTFGYGARLF
notes: Aha1, human, C-terminal domain, amino acids 201-338; source: E. coli, purified
B2: purified Aha1-C (domain or fragment, human, UniProt O95433 201-338, looked up)
chain: B1 chain
notes: Aha1, human, C-terminal domain, amino acid 201-338; perdeuterated for NMR; source: purified
B3: human Aha1 C-terminal domain (domain or fragment, UniProt O95433 201-338, looked up)
chain: B1 chain
notes: Aha1, human, C-terminal domain (Aha1-C, amino acid 201-338); the ITC methods speak only of 'Aha1 constructs'; source: purified
B4: Aha1-N (N-terminal domain of human Aha1) (domain or fragment, UniProt O95433 1-162, looked up)
chain: MAKWGEGDPRWIVEERADATNVNNWHWTERDASNWSTDKLKTLFLAVQVQNEEGKCEVTEVSKLDGEASINNRKGKLIFFYEWSVKLNWTGTSKSGVQYKGHVEIPNLSDENSVDEVEISVSLAKDEPDTNLVALMKEEGVKLLREAMGIYISTLKTEFTQG
notes: Aha1, human, N-terminal domain, amino acids 1-162; source: E. coli, purified
B5: human Aha1 N-terminal domain (domain or fragment, UniProt O95433 1-162, looked up)
chain: B4 chain
notes: Aha1, human, N-terminal domain (Aha1-N, amino acid 1-162); the ITC methods speak only of 'Aha1 constructs'; source: purified
B6: purified human Hsp90α-Y313E (natural protein)
chain: not shown
notes: Hsp90α (heat shock protein 90 alpha), human; 2H/13C Ile-labelled for NMR; also called Hsp90-Y313E; Y313E-Hsp90; source: purified

Data set [1] concerns the target T1, Hsp90-Y313E (human, UniProt P07900 1-732, Y313E).
T1 construct: Heat shock protein 90 alpha, human, phosphomimetic mutant Y313E; also called Y313E-Hsp90; Hsp90α-Y313E; source: E. coli, purified
The experiment in a line: ITC; without AMPPNP; Hsp90 (30 µM) in the cell, Aha1 constructs (380-450 µM) in the syringe; 20 mM Tris pH 7.5, 100 mM NaCl, 0.5 mM EDTA, 5 mM MgSO4, 1 mM TCEP, 36 °C; three technical repeats. The settings on record: both partners purified.

In data set [2] the target is T2, Human wild-type Hsp90 (Hsp90α) (human, UniProt P07900 1-732).
T2 construct: Heat shock protein 90 alpha, human; also called Hsp90-wt; WT
Kind of data set: ITC; with 2 mM AMPPNP in cell and syringe; Hsp90 (30 µM) in the cell, Aha1 constructs (380-450 µM) in the syringe; 20 mM Tris pH 7.5, 100 mM NaCl, 0.5 mM EDTA, 5 mM MgSO4, 1 mM TCEP, 36 °C; three technical repeats. The settings on record: both partners purified. A general note: In ITC the heat of successive injections is recorded.

For data set [3], the target named is T1, Hsp90-Y313E. The data set is described as above. As to conditions: both partners purified.
Data set [4] concerns the target B6. Kind of data set: ITC; Supplementary Table 3, with 2 mM AMPPNP in cell and syringe: Hsp90 30 μM in the cell, Aha1 constructs 380-450 μM in the syringe; 36 °C; 20 mM Tris pH 7.5, 100 mM NaCl, 0.5 mM EDTA, 5 mM MgSO4, 1 mM TCEP. The settings on record: both partners purified.
The target in data set [5] is T3, human Hsp90α Y313E (phosphomimetic mutant) (human, UniProt P07900 1-732, Y313E).
T3 construct: Hsp90α, human, with the phosphomimetic substitution Y313E (numbering based on human Hsp90α); also called Hsp90-Y313E; source: purified
Kind of data set: ITC; PEAQ-ITC, 36 °C; Hsp90 in the cell (30 μM), Aha1 constructs in the syringe (380-450 μM); 20 mM Tris pH 7.5, 100 mM NaCl, 0.5 mM EDTA, 5 mM MgSO4, 1 mM TCEP; no AMPPNP; three technical repeats. The settings on record: both partners purified.

Data set [6] concerns the target T4, human Hsp90α, wild-type (human, UniProt P07900 1-732).
T4 construct: Hsp90α (heat shock protein 90 alpha), human; also called WT; wild-type Hsp90; source: purified
Kind of data set: ITC; PEAQ-ITC, 36 °C; Hsp90 in the cell (30 μM), Aha1 constructs in the syringe (380-450 μM); 20 mM Tris pH 7.5, 100 mM NaCl, 0.5 mM EDTA, 5 mM MgSO4, 1 mM TCEP; 2 mM AMPPNP in cell and syringe; three technical repeats. The settings on record: both partners purified.

Data set [7] deals with T3, human Hsp90α Y313E (phosphomimetic …). The description is as above. The settings on record: both partners purified.
Data set [8] has as its target T2, Human wild-type Hsp90 (Hsp90α). The experiment in a line: ITC; without AMPPNP; Hsp90 (30 µM) in the cell, Aha1 constructs (380-450 µM) in the syringe; 20 mM Tris pH 7.5, 100 mM NaCl, 0.5 mM EDTA, 5 mM MgSO4, 1 mM TCEP, 36 °C; three technical repeats. The settings on record: both partners purified.
Data set [9] addresses T4, human Hsp90α, wild-type. Kind of data set: ITC; PEAQ-ITC, 36 °C; Hsp90 in the cell (30 μM), Aha1 constructs in the syringe (380-450 μM); 20 mM Tris pH 7.5, 100 mM NaCl, 0.5 mM EDTA, 5 mM MgSO4, 1 mM TCEP; no AMPPNP; three technical repeats. As to conditions: both partners purified.
Data set [10] concerns the molecule itself. Kind of data set: cross-linking; purified Hsp90 (with or without 10 mM AMPPNP, 10 min on ice) mixed with equimolar Aha1-His, 30 min on ice; 1 mM BDP-NHP (lysine-lysine), 30 min at room temperature; 25 mM HEPES pH 7.3, 100 mM NaCl; LC-MS (ReACT, PRM).

On to B1, for which the figures for the dissociation constant Kd (with Hsp90-Y313E [1]; in [2]; in the data set with Hsp90-Y313E [3]) were 5.5 µM, 15.6 µM and 2.3 µM, respectively.
On to B2, for which, in data set [4], the “fold reduction of Kd against wild-type Hsp90 (both with AMPPNP)” value is around 7 fold and the “fold reduction of Kd with AMPPNP against without AMPPNP” value is above 2 fold.
In the case of B3, the dissociation constant Kd is 7.71 µM and 4.59 µM and 4.04 µM and 5.45 µM in data set [5]; 17 µM and 13.3 µM and 16.4 µM and 15.6 µM with human Hsp90α, wild-type [6]; 2.02 µM and 2.27 µM and 2.62 µM and 2.3 µM in [7].
In the case of B4, the dissociation constant Kd stood at 6.8 µM in data set [8], 11.2 µM with Hsp90-Y313E [1], 4.9 µM in [2] and 8.9 µM with Hsp90-Y313E [3].
In the case of B5, the Kd is 7.2 µM and 6.1 µM and 7.22 µM and 6.84 µM with human Hsp90α, wild-type [9]; 11.6 µM and 12.2 µM and 9.96 µM and 11.2 µM in data set [5]; 5.69 µM and 4.69 µM and 4.25 µM and 4.88 µM with human Hsp90α, wild-type [6]; 7.97 µM and 8.96 µM and 9.66 µM and 8.86 µM in [7].
As to B6, the binding result in [10] is given as “binds”.
